Measurements taken from patent US20240092935A1 (BETH ISRAEL DEACONESS MEDICAL CENTER, published 2024).
One block for each binder: values may come before it. GalNAc = N-acetylgalactosamine

Experiments:
[1] = target: T1, Peptide-4 H2N-KTTT-CONH2 (chart ID 21); experiment: Tn glycopeptide microarray, Alexa Fluor 488 goat anti-human IgG
T1 peptide: H-KTTT-NH2
Description: (§1) The Tn glycopeptide microarray was prepared as previously described (25). The Consortium for Functional Glycomics (CFG) glycan microarray version 5.0 was used (www.functionalglycomics.org) (26). […] Slides were washed four times with TSM wash buffer 1 (20 mM Tris-HCl, pH 7.4, 150 mM NaCl, 2 mM CaCl₂), 2 mM MgCl2 and 0.05% Tween-20), and washed four times with TSM wash buffer 2 (20 mM Tris-HCl, pH 7.4, 150 mM NaCl, 2 mM CaCl2) and 2 mM MgCl2). Alexa Fluor® 488-labeled goat anti-human IgG or goat anti-mouse IgM secondary (diluted to 5 μg/ml) were used for detection. After washing as above, slides were washed once in water and dried before being read on a Genepix® 4300A microarray scanner (Molecular Devices). Images were analyzed with quantitation software (GenePix® Pro Microarray Analysis Software Ver. 7, Molecular Devices).

[2] = target: T2, a-Dystroglycan peptide Ac-PPTTTTKKP-NH2 (chart ID 9); experiment: as above
T2 peptide: Ac-PPTTTTKKP-NH2
Description: as §1

[3] = target: T3, EA2 glycopeptide Ac-PTTDSTT*PAPTTK-NH2 (chart ID 11); experiment: as above
T3 peptide: Ac-PTTDSTT(GalNAc)PAPTTK-NH2
Description: as §1

[4] = target: T4, MUC1-1R peptide H2N-TSAPDTRDAP-NH2 (chart ID 15); experiment: as above
T4 peptide: H-TSAPDTRDAP-NH2
Description: as §1

[5] = target: T5, EA2-R peptide Ac-PTTDSTTPAPTTK-NH2 (chart ID 12); experiment: as above
T5 peptide: Ac-PTTDSTTPAPTTK-NH2
Description: as §1

[6] = target: T6, a-Dystroglycan glycopeptide Ac-PPT*T*T*T*KKP-HN2 (chart ID 13); experiment: as above
T6 peptide: Ac-PPT(GalNAc)T(GalNAc)T(GalNAc)T(GalNAc)KKP-NH2
Description: as §1

[7] = target: T7, MUC5AC glycopeptide H2N-GTTPSPVPT*TSTTSAP-OH (chart ID 10); experiment: as above
T7 peptide: H-GTTPSPVPT(GalNAc)TSTTSAP-OH
Description: as §1

[8] = target: T8, MUC1-1 glycopeptide H2N-TSAPDT*RDAP-NH2 (chart ID 14); experiment: as above
T8 peptide: H-TSAPDT(GalNAc)RDAP-NH2
Description: as §1

[9] = target: T9, Peptide-5 H2N-KTTTG-CONH2 (chart ID 22); experiment: as above
T9 peptide: H-KTTTG-NH2
Description: as §1

[10] = target: T10, Asialo-BSM (desialylated bovine submaxillary mucin) (bovine); experiment: plate binding assay, Asialo-BSM coated on 96-well plate, serial dilution of antibody, fluorescent secondary antibody
T10 construct: also called desialylated BSM; Asialo-BSM beads

[11] = target: T1, Peptide-4 H2N-KTTT-CONH2 (chart ID 21); experiment: Tn glycopeptide microarray, Alexa Fluor 488 goat anti-mouse IgM
Description: as §1

[12] = target: T2, a-Dystroglycan peptide Ac-PPTTTTKKP-NH2 …; experiment: as above
Description: as §1

[13] = target: T4, MUC1-1R peptide H2N-TSAPDTRDAP-NH2 …; experiment: as above
Description: as §1

[14] = target: T6, a-Dystroglycan glycopeptide …; experiment: as above
Description: as §1

[15] = target: T8, MUC1-1 glycopeptide H2N-TSAPDT*RDAP-NH2 …; experiment: as above
Description: as §1

[16] = target: T9, Peptide-5 H2N-KTTTG-CONH2 (chart ID 22); experiment: as above
Description: as §1

[17] = target: T11, B-MUC2 glycopeptide Ac-PTT*TPLK-NH2 (chart ID 2); experiment: Tn glycopeptide microarray probed with biotinylated PNA and Alexa488-streptavidin
T11 peptide: Ac-PTT(GalNAc)TPLK-NH2

[18] = target: T12, F-MUC2 glycopeptide Ac-PTT*T*PLK-NH2 (chart ID 6); experiment: as above
T12 construct: also called double-Tn-MUC2; bar label T*T*
T12 peptide: Ac-PTT(GalNAc)T(GalNAc)PLK-NH2

[19] = target: T13, A-MUC2 glycopeptide Ac-PT*TTPLK-NH2 (chart ID 1); experiment: as above
T13 peptide: Ac-PT(GalNAc)TTPLK-NH2

[20] = target: T14, D-MUC2 glycopeptide Ac-PT*T*TPLK-NH2 (chart ID 4); experiment: as above
T14 peptide: Ac-PT(GalNAc)T(GalNAc)TPLK-NH2

[21] = target: T15, C-MUC2 glycopeptide Ac-PTTT*PLK-NH2 (chart ID 3); experiment: as above
T15 peptide: Ac-PTTT(GalNAc)PLK-NH2

[22] = target: T3, EA2 glycopeptide Ac-PTTDSTT*PAPTTK-NH2 …; experiment: Tn glycopeptide microarray, Alexa Fluor 488 goat anti-mouse IgM
Description: as §1

[23] = target: T5, EA2-R peptide Ac-PTTDSTTPAPTTK-NH2 …; experiment: as above
Description: as §1

[24] = target: T7, MUC5AC glycopeptide …; experiment: as above
Description: as §1

Kd [10]: 829 nM
B1: Remab6, recombinant human chimeric IgG1 anti-Tn antibody (antibody)
heavy: not shown
light: QIVLTQSPAIMSSSPGEKVALSCSASSSVSYVYWYQQKPGSSPKPWIYRTSNLASGVPARFSGSGSGTSYSLTISSMEAEDAATYYCQQYHSYPFTFGSGTKLEIKRTVAAPSVFIFPPSDEQLKSGTASVVCLLNNFYPREAKVQWKVDNALQSGNSQESVTEQDSKDSTYSLSSTLTLSKADYEKHKVYACEVTHQGLSSPVTKSFNRGEC
notes: Mouse variable regions engineered from BaGs6 with human IgG1 and kappa constant regions; expressed in HEK293 Freestyle cells; also called Remab6-WT; hIgG1
binding result [1]: no binding (tested: 5 µg/ml (text paragraph 261)) | binding result [2]: no binding (tested: 5 µg/ml (text paragraph 261)) | binding result [3]: no binding (tested: 5 µg/ml (text paragraph 261)) | binding result [4]: no binding (tested: 5 µg/ml (text paragraph 261)) | binding result [5]: no binding (tested: 5 µg/ml (text paragraph 261)) | binding result [6]: no binding (tested: 5 µg/ml (text paragraph 261)) | binding result [7]: no binding (tested: 5 µg/ml (text paragraph 261)) | binding result [8]: no binding (tested: 5 µg/ml (text paragraph 261)) | binding result [9]: no binding (tested: 5 µg/ml (text paragraph 261))

Kd [10]: 54.3 nM
B2: ReBaGs6, recombinant murine IgM anti-Tn antibody (antibody)
heavy: DTMLQQSDAELVKPGASVKMSCKASGYTFTDHAIHWVKQKPEQGLEWIGYVSPGNGDIKYNEKFKGKATLSADKSSSTAYMQLNSLTSEDSAVYFCKRSYGSFDYWGQGTTLTVSSESQSFPNVFPLVSCESPLSDKNLVAMGCLARDFLPSTISFTWNYQNNTEVIQGIRTFPTLRTGGKYLATSQVLLSPKSILEGSDEYLVCKIHYGGKNRDLHVPIPAVAEMNPNVNVFVPPRDGFSGPAPRKSKLICEATNFTPKPITVSWLKDGKLVESGFTTDPVTIENKGSTPQTYKVISTLTISEIDWLNLNVYTCRVDHRGLTFLKNVSSTCAASPSTDILTFTIPPSFADIFLSKSANLTCLVSNLATYETLNISWASQSGEPLETKIKIMESHPNGTFSAKGVASVCVEDWNNRKEFVCTVTHRDLPSPQKKFISKPNEVHKHPPAVYLLPPAREQLNLRESATVTCLVKGFSPADISVQWLQRGQLLPQEKYVTSAPMPEPGAPGFYFTHSILTVTEEEWNSGETYTCVVGHEALPHLVTERTVDKSTGKPTLYNVSLIMSDTGGTCY
light: QIVLTQSPAIMSSSPGEKVALSCSASSSVSYVYWYQQKPGSSPKPWIYRTSNLASGVPARFSGSGSGTSYSLTISSMEAEDAATYYCQQYHSYPFTFGSGTKLEIKRADAAPTVSIFPPSSEQLTSGGASVVCFLNNFYPKDINVKWKIDGSERQNGVLNSWTDQDSKDSTYSMSSTLTLTKDEYERHNSYTCEATHKTSTSPIVKSFNRNEC
notes: Mouse IgM (mu heavy chain, kappa light chain); also called ReGs6; mIgM
binding result [11]: no binding (tested: 20 or 2 µg/ml (text paragraph 261)) | binding result [12]: no binding (tested: 20 or 2 µg/ml (text paragraph 261)) | binding result [13]: no binding (tested: 20 or 2 µg/ml (text paragraph 261)) | binding result [14]: no binding (tested: 20 or 2 µg/ml (text paragraph 261)) | binding result [15]: no binding (tested: 20 or 2 µg/ml (text paragraph 261)) | binding result [16]: no binding (tested: 20 or 2 µg/ml (text paragraph 261))

binding result [17]: no binding | binding result [18]: no binding | binding result [19]: no binding | binding result [20]: no binding | binding result [21]: no binding
B3: PNA (other)
chain: AETVSFNFNSFSEGNPAINFQGDVTVLSNGNIQLTNLNKVNSVGRVLYAMPVRIWSSATGNVASFLTSFSFEMKDIKDYDPADGIIFFIAPEDTQIPAGSIGGGTLGVSDTKGAGHFVGVEFDTYSNSEYNDPPTDHVGIDVNSVDSVKTVPWNSVSGAVVKVTVIYDSSTKTLSVAVTNDNGDITTIAQVVDLKAKLPERVKFGFSASGSLGGRQIHLIRSWSFTSTLITTTRRSIDNNEKKIMNMASA
modifications: Biotinylated at unspecified positions. The native lectin is a homotetramer; one subunit is given.
notes: also called biotinylated PNA; Peanut agglutinin

B4: BaGs6, murine IgM anti-Tn monoclonal antibody from mouse ascites (antibody, V domains shown)
VH: DTMLQQSDAELVKPGASVKMSCKASGYTFTDHAIHWVKQKPEQGLEWIGYVSPGNGDIKYNEKFKGKATLSADKSSSTAYMQLNSLTSEDSAVYFCKRSYGSFDYWGQGTTLTVSS
VL: QIVLTQSPAIMSSSPGEKVALSCSASSSVSYVYWYQQKPGSSPKPWIYRTSNLASGVPARFSGSGSGTSYSLTISSMEAEDAATYYCQQYHSYPFTFGSGTKLEIKR
notes: Natural mouse IgM used as ascites fluid; also called Ca3638; anti-Tn ascites
binding result [11]: no binding (tested: 1:200 dilution (text paragraph 261)) | binding result [22]: no binding (tested: 1:200 dilution (text paragraph 261)) | binding result [13]: no binding (tested: 1:200 dilution (text paragraph 261)) | binding result [23]: no binding (tested: 1:200 dilution (text paragraph 261)) | binding result [14]: no binding (tested: 1:200 dilution (text paragraph 261)) | binding result [24]: no binding (tested: 1:200 dilution (text paragraph 261)) | binding result [15]: no binding (tested: 1:200 dilution (text paragraph 261)) | binding result [16]: no binding (tested: 1:200 dilution (text paragraph 261))
